This note sets out measurements from the supplement of paper PMC5998384.

Data set [1] relates to HeLa Kyoto. The data set is described as follows: solubility in G1/S (NP-40 vs SDS abundance) (log2 ratio); higher = more soluble. The settings on record: cell cycle stage: G1/S.
In data set [2] the test system is HeLa Kyoto. Kind of data set: melting temperature (median over replicates), in situ; higher = more thermally stable.
The subject of data set [3] is HeLa Kyoto. The data set is described as follows: solubility change mitosis vs G1/S (difference of NP-40 vs SDS log2 ratios) (log2 ratio difference); higher = more soluble in mitosis.
Data set [4] has as its system HeLa Kyoto. The data set is described as follows: thermal stability score vs G1/S (z-score of summed log2 fold changes over temperatures); higher = more thermally stable than in G1/S.
Setting [5] is: cell cycle stage: early G1 (4.5 h after nocodazole release).
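Throughout, for melting temperature (median over replicates), in situ: HeLa Kyoto cells synchronized by double thymidine or nocodazole block, proteins quantified by TMT10plex mass spectrometry, three independent biological replicates.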
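Throughout, for solubility change mitosis vs G1/S (difference of NP-40 vs SDS log2 ratios): synchronized HeLa Kyoto cells (double thymidine block for G1/S, nocodazole release for mitosis), protein amounts in NP-40 versus SDS lysates quantified by mass spectrometry, three biological replicates.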
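Throughout, for solubility in G1/S (NP-40 vs SDS abundance): HeLa Kyoto cells arrested at G1/S by double thymidine block, proteins quantified by TMT10plex mass spectrometry in mild NP-40 versus SDS extracts, three biological replicates.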
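Throughout, for thermal stability score vs G1/S (z-score of summed log2 fold changes over temperatures): synchronized HeLa Kyoto cells, proteins quantified by TMT10plex mass spectrometry, three biological replicates, mitosis taken 0.5 h after nocodazole release, G1/S directly after double thymidine block.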

As for “MEYMAESTDRSPGHILCCECGVPISPNPANICVACLRSKVDISQGIPKQVSISFCKQCQRYFQPPGTWIQCALESRELLALCLKKIKAPLSKVRLVDAGFVWTEPHSKRLKVKLTIQKEVMNGAILQQVFVVDYVVQSQMCGDCHRVEAKDFWKAVIQVRQKTLHKKTFYYLEQLILKYGMHQNTLRIKEIHDGLDFYYSSKQHAQKMVEFLQCTVPCRYKASQRLISQDIHSNTYNYKSTFSVEIVPICKDNVVCLSPKLAQSLGNMNQICVCIRVTSAIHLIDPNTLQVADIDGSTFWSHPFNSLCHPKQLEEFIVMECSIVQDIKRAAGAGMISKKHTLGEVWVQKTSEMNTDKQYFCRTHLGHLLNPGDLVLGFDLANCNLNDEHVNKMNSDRVPDVVLIKKSYDRTKRQRRRNWKLKELARERENMDTDDERQYQDFLEDLEEDEAIRKNVNIYRDSAIPVESDTDDEGAPRISLAEMLEDLHISQDATGEEGASMLT [NMD3]”, the “solubility in G1/S (log2)” value with HeLa Kyoto [1] is -0.119. The melting temperature with HeLa Kyoto [2] (cell cycle stage: G1/S) and in the data set with HeLa Kyoto [2] (cell cycle stage: mitosis) was 52.2 °C in each case. Also, the “solubility change mitosis (log2)” value with HeLa Kyoto [3] is -0.0927. In addition, the thermal stability score was -1.14 in the data set on HeLa Kyoto [4] (setting [5]) and -1.18 with HeLa Kyoto [4] (cell cycle stage: mitosis).
As for “MFDTTPHSGRSTPSSSPSLRKRLQLLPPSRPPPEPEPGTMVEKGSDSSSEKGGVPGTPSTQSLGSRNFIRNSKKMQSWYSMLSPTYKQRNEDFRKLFSKLPEAERLIVDYSCALQREILLQGRLYLSENWICFYSNIFRWETTISIQLKEVTCLKKEKTAKLIPNAIQICTESEKHFFTSFGARDRCFLLIFRLWQNALLEKTLSPRELWHLVHQCYGSELGLTSEDEDYVSPLQLNGLGTPKEVGDVIALSDITSSGAADRSQEPSPVGSRRGHVTPNLSRASSDADHGAEEDKEEQVDSQPDASSSQTVTPVAEPPSTEPTQPDGPTTLGPLDLLPSEELLTDTSNSSSSTGEEADLAALLPDLSGRLLINSVFHVGAERLQQMLFSDSPFLQGFLQQCKFTDVTLSPWSGDSKCHQRRVLTYTIPISNPLGPKSASVVETQTLFRRGPQAGGCVVDSEVLTQGIPYQDYFYTAHRYCILGLARNKARLRVSSEIRYRKQPWSLVKSLIEKNSWSGIEDYFHHLERELAKAEKLSLEEGGKDARGLLSGLRRRKRPLSWRAHGDGPQHPDPDPCARAGIHTSGSLSSRFSEPSVDQGPGAGIPSALVLISIVICVSLIILIALNVLLFYRLWSLERTAHTFESWHSLALAKGKFPQTATEWAEILALQKQFHSVEVHKWRQILRASVELLDEMKFSLEKLHQGITVSDPPFDTQPRPDDSFS [GRAMD1A]”, the “solubility in G1/S (log2)” value with HeLa Kyoto [1] was -0.0369. Further, the figures for the melting temperature with HeLa Kyoto [2] (cell cycle stage: G1/S) and in the data set with HeLa Kyoto [2] (cell cycle stage: mitosis) were 50.4 °C and 51.8 °C, respectively. For the same sequence, in the data set on HeLa Kyoto [3], the “solubility change mitosis (log2)” value is -0.0358. Moreover, the thermal stability score in the data set with HeLa Kyoto [4] (setting [5]) amounted to 0.21; in the data set with HeLa Kyoto [4] (cell cycle stage: mitosis), 0.368.
On to “MFEIKKICCIGAGYVGGPTCSVIAHMCPEIRVTVVDVNESRINAWNSPTLPIYEPGLKEVVESCRGKNLFFSTNIDDAIKEADLVFISVNTPTKTYGMGKGRAADLKYIEACARRIVQNSNGYKIVTEKSTVPVRAAESIRRIFDANTKPNLNLQVLSNPEFLAEGTAIKDLKNPDRVLIGGDETPEGQRAVQALCAVYEHWVPREKILTTNTWSSELSKLAANAFLAQRISSINSISALCEATGADVEEVATAIGMDQRIGNKFLKASVGFGGSCFQKDVLNLVYLCEALNLPEVARYWQQVIDMNDYQRRRFASRIIDSLFNTVTDKKIAILGFAFKKDTGDTRESSSIYISKYLMDEGAHLHIYDPKVPREQIVVDLSHPGVSEDDQVSRLVTISKDPYEACDGAHAVVICTEWDMFKELDYERIHKKMLKPAFIFDGRRVLDGLHNELQTIGFQIETIGKKVSSKRIPYAPSGEIPKFSLQDPPNKKPKV [UGDH]”, for which, in the data set with HeLa Kyoto [1], the “solubility in G1/S (log2)” value came out at 0.126. The melting temperature in the data set on HeLa Kyoto [2] (cell cycle stage: G1/S) is 54 °C; with HeLa Kyoto [2] (cell cycle stage: mitosis) it was 54.2 °C. Also, the “solubility change mitosis (log2)” value in the data set with HeLa Kyoto [3] was -0.0998. For the same sequence, the thermal stability score turned out to be 0.636 with HeLa Kyoto [4] (setting [5]) and 0.376 in the data set with HeLa Kyoto [4] (cell cycle stage: mitosis).
Take “MFFTCGPNEAMVVSGFCRSPPVMVAGGRVFVLPCIQQIQRISLNTLTLNVKSEKVYTRHGVPISVTGIAQVKIQGQNKEMLAAACQMFLGKTEAEIAHIALETLEGHQRAIMAHMTVEEIYKDRQKFSEQVFKVASSDLVNMGISVVSYTLKDIHDDQDYLHSLGKARTAQVQKDARIGEAEAKRDAGIREAKAKQEKVSAQYLSEIEMAKAQRDYELKKAAYDIEVNTRRAQADLAYQLQVAKTKQQIEEQRVQVQVVERAQQVAVQEQEIARREKELEARVRKPAEAERYKLERLAEAEKSQLIMQAEAEAASVRMRGEAEAFAIGARARAEAEQMAKKAEAFQLYQEAAQLDMLLEKLPQVAEEISGPLTSANKITLVSSGSGTMGAAKVTGEVLDILTRLPESVERLTGVSISQVNHKPLRTA [FLOT1]”: the “solubility in G1/S (log2)” value in the data set with HeLa Kyoto [1] is -0.837. Besides, the melting temperature worked out at 55.3 °C in the data set on HeLa Kyoto [2] (cell cycle stage: G1/S) and 53.7 °C with HeLa Kyoto [2] (cell cycle stage: mitosis). In addition, the “solubility change mitosis (log2)” value in the data set on HeLa Kyoto [3] worked out at 0.121. Besides, the values for the thermal stability score in the data set with HeLa Kyoto [4] (setting [5]) and in the data set with HeLa Kyoto [4] (cell cycle stage: mitosis) were -2.16 and 0.224, respectively.
As to “MFISLWEFFYGHFFRFWMKWLLRQMTGKCELQRIFDTYVGAQRTHRIENSLTYSKNKVLQKATHVVQSEVDKYVDDIMKEKNINPEKDASFKICMKMCLLQITGYKQLYLDVESVRKRPYDSDNLQHEELLMKLWNLLMPTKKLNARISKQWAEIGFQGDDPKTDFRGMGILGLINLVYFSENYTSEAHQILSRSNHPKLGYSYAIVGINLTEMAYSLLKSEALKFHLYNLVPGIPTMEHFHQFYCYLVYEFDKFWFEEEPESIMYFNLYREKFHEKIKGLLLDCNVALTLKV [ELMOD2]”, the “solubility in G1/S (log2)” value with HeLa Kyoto [1] is -0.348. Moreover, the values for the melting temperature with HeLa Kyoto [2] (cell cycle stage: G1/S) and with HeLa Kyoto [2] (cell cycle stage: mitosis) were 51.5 °C and 51.3 °C, respectively. The “solubility change mitosis (log2)” value with HeLa Kyoto [3] is -0.25. Besides, the thermal stability score in the data set on HeLa Kyoto [4] (setting [5]) was -0.373; in the data set on HeLa Kyoto [4] (cell cycle stage: mitosis), -0.0202.
